1 molecule from publication PMC12348683 can be followed below.

This data set has as its target T1, KwaB (O55) (Escherichia coli O55, UniProt P0DW46 1-315).
T1 sequence: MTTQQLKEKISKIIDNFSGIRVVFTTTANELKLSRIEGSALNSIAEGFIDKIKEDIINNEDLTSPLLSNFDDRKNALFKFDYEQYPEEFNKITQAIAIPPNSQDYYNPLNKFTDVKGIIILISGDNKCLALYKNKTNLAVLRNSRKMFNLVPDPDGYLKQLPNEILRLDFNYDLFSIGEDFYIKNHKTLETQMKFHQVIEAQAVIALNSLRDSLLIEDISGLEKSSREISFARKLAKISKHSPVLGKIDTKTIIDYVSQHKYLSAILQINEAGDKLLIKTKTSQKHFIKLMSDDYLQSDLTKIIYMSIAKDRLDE
Kind of data set: EMSA.

B1: 72-bp dsDNA (dsDNA)
DNA 1: TGGTTTTTATATGTTTTGTTATGTATTGTTTATTTTCCCTTTAATTTTAGGATATGAAAACAAGAATTTATC
DNA 2: GATAAATTCTTGTTTTCATATCCTAAAATTAAAGGGAAAATAAACAATACATAACAAAACATATAAAAACCA
Turning to B1, the binding result was “binds”.
